{"source": "patent US20230149556A1", "about": "“COMBINATION THERAPY” (ADC Therapeutics SA, priority 2017, published 2023)", "test_system": "Ramos cells", "experiment": "In vitro cytotoxicity MTS assay, chequerboard of ADC and rituximab (Example 4)", "format": "cell-based", "settings": "single agent", "protocol": "Ramos cells were cultured RPMI 1640 supplemented with 10% Hyclone FBS. The concentration and viability of cells from a sub-confluent (80-90% confluency) T75 flask were measured by trypan blue staining, and counted using the LUNA-II™ Automated Cell Counter. Cells were diluted to 2 x10^5/ml, dispensed (50 µl/well) into 96-well flat-bottom plates. A chequerboard was set up in combining 10-fold dilutions of ADCTx19 or ADCTx22 and 10-fold dilutions of rituximab in RPMI before 50 µl of each dilution was transferred into the 96-well plate containing the cells. This plate was incubated at 37° C. in a CO2-gassed incubator for 4 days. At the end of the incubation period, cell viability was measured by MTS assay. MTS (Promega) was dispensed (20 µl per well) into each well and incubated for 4 hours at 37C in the CO2-gassed incubator. Well absorbance was measured at 490 nm. IC50 was determined from the dose-response data using GraphPad Prism using the non-linear curve fit algorithm: sigmoidal dose-response curve with variable slope."}
{"substance": "Rituximab: anti-CD20 agent, antibody, CAS 174722-31-7", "values": [{"measurement": "cytotoxic effect by itself", "result": "no significant cytotoxic effect"}]}
